According to the Human Domainome abundance scans (Beltran et al. 2025):
± gives the uncertainty stated by the source.

B1: TOX high mobility group box family member 3, residues 256 to 323; numbered along this chain, O15405 (parent)
chain: QKPVSAYALFFRDTQAAIKGQNPNATFGEVSKIVASMWDSLGEEQKQVYKRKTEAAKKEYLKALAAYR

Variants of: B1
Assay: abundance fitness (aPCA) (normalised: wild type 0, dead -1); higher = more abundant; growth selection in yeast, the domain comes from the species named
Details: Homo sapiens
In the case of K58W, the abundance fitness is reported as -0.351 ± 0.083.
With K58Y the abundance fitness was -0.279 ± 0.095.
In the case of K58M, the abundance fitness is reported as -0.078 ± 0.066.
K58N showed an abundance fitness of -0.089 ± 0.088.
Variant N22K has an abundance fitness of -0.382 ± 0.13.
Variant F27W has an abundance fitness of -0.129 ± 0.053.
F27G showed an abundance fitness of -0.071 ± 0.047.
Variant F27N has an abundance fitness of 0.295 ± 0.085.
Variant F27K has an abundance fitness of 0.258 ± 0.061.
In the case of A6M, the abundance fitness is reported as -0.316 ± 0.1.
In the case of A6H, the abundance fitness is reported as -0.597 ± 0.37.
Work on A6R yielded an abundance fitness of -0.808 ± 0.1.
Work on A35I yielded an abundance fitness of -0.123 ± 0.12.
A35S gave an abundance fitness of -0.037 ± 0.05.
A35V gave an abundance fitness of -0.727 ± 0.19.
Work on A35W yielded an abundance fitness of -0.16 ± 0.076.
In the case of M37N, the abundance fitness is reported as -0.114 ± 0.13.
With S5N the abundance fitness was 0.115 ± 0.16.
In the case of S5G, the abundance fitness is reported as -0.091 ± 0.052.
S5P showed an abundance fitness of -0.458 ± 0.11.
For Y67W, the abundance fitness was -0.158 ± 0.17.
Y67F showed an abundance fitness of -0.106 ± 0.077.
Y67D showed an abundance fitness of 0.256 ± 0.085.
For Y67M, the abundance fitness was 0.161 ± 0.082.
A17H gave an abundance fitness of -0.044 ± 0.13.
A17I gave an abundance fitness of -0.012 ± 0.076.
Work on A17D yielded an abundance fitness of -0.133 ± 0.12.
With A17M the abundance fitness was -0.169 ± 0.098.
K50R showed an abundance fitness of 0.079 ± 0.25.
In the case of K50S, the abundance fitness is reported as -0.181 ± 0.36.
For A55L, the abundance fitness was -0.058 ± 0.041.
Work on A55K yielded an abundance fitness of 0.049 ± 0.057.
A55R gave an abundance fitness of -0.083 ± 0.046.
Work on A55E yielded an abundance fitness of 0.076 ± 0.059.
G28Y gave an abundance fitness of -0.5 ± 0.15.
G28P showed an abundance fitness of 0.05 ± 0.049.
For G28V, the abundance fitness was -0.12 ± 0.056.
With G28K the abundance fitness was -0.027 ± 0.073.
Work on G28M yielded an abundance fitness of -0.179 ± 0.063.
E54C showed an abundance fitness of -0.244 ± 0.084.
A16T showed an abundance fitness of -0.047 ± 0.081.
Work on A16F yielded an abundance fitness of -0.164 ± 0.11.
For K46D, the abundance fitness was -0.678 ± 0.13.
K46Q showed an abundance fitness of -0.08 ± 0.083.
Variant K46V has an abundance fitness of -0.437 ± 0.054.
K46W showed an abundance fitness of -0.988 ± 0.24.
With N24V the abundance fitness was -0.591 ± 0.08.
In the case of N24D, the abundance fitness is reported as -0.055 ± 0.091.
With N24Y the abundance fitness was -0.563 ± 0.097.
With N24S the abundance fitness was 0.034 ± 0.052.
For L9H, the abundance fitness was -0.394 ± 0.19.
Work on L9D yielded an abundance fitness of -0.217 ± 0.29.
For L9E, the abundance fitness was 0.262 ± 0.16.
For L9C, the abundance fitness was -0.106 ± 0.1.
For L9P, the abundance fitness was -1.08 ± 0.39.
L9F gave an abundance fitness of -0.31 ± 0.11.
I18W showed an abundance fitness of -0.692 ± 0.16.
Work on I18G yielded an abundance fitness of -0.966 ± 0.18.
I18D gave an abundance fitness of -1.11 ± 0.49.
Work on I18V yielded an abundance fitness of 0.012 ± 0.057.
In the case of R51A, the abundance fitness is reported as -0.031 ± 0.049.
For R51K, the abundance fitness was 0.05 ± 0.084.
Variant R51V has an abundance fitness of -0.072 ± 0.055.
With I33Q the abundance fitness was -0.122 ± 0.092.
With I33M the abundance fitness was 0.101 ± 0.071.
With I33K the abundance fitness was -0.01 ± 0.081.
I33A showed an abundance fitness of -0.104 ± 0.05.
I33G gave an abundance fitness of -0.402 ± 0.067.
T26D showed an abundance fitness of 0.043 ± 0.085.
T26A showed an abundance fitness of -0.25 ± 0.068.
Variant T26M has an abundance fitness of -0.862 ± 0.11.
Variant T26Y has an abundance fitness of -0.957 ± 0.26.
T26G gave an abundance fitness of -0.208 ± 0.065.
T14S showed an abundance fitness of 0.087 ± 0.077.
Work on T14N yielded an abundance fitness of -0.278 ± 0.14.
Work on T14L yielded an abundance fitness of -0.314 ± 0.064.
T14C gave an abundance fitness of -0.781 ± 0.29.
Work on R12V yielded an abundance fitness of -0.433 ± 0.1.
In the case of R12E, the abundance fitness is reported as 0.054 ± 0.1.
R12S showed an abundance fitness of -0.113 ± 0.064.
Variant L41K has an abundance fitness of -0.931 ± 0.14.
L41N showed an abundance fitness of -1.16 ± 0.46.
Variant L41E has an abundance fitness of -0.922 ± 0.16.
